Experimental data published in US20240174763A1 (NOVOPROTEIN SCIENTIFIC, published 2024).
Positions count from the first letter of the chain named. Like-named read-outs stand apart in the source and are kept apart here. One block for each molecule: values may come before it.

What was measured:
[1] = target: human CD73 on SK-OV-3 cells (human ovarian adenocarcinoma cells) (human) (UniProt P21589); experiment: flow cytometry on SK-OV-3 cells
[2] = target: monkey CD73 on CHOK1-cynoCD73 cells (monkey); experiment: flow cytometry on CHOK1-cynoCD73 cells
[3] = target: human CD73 on SK-OV-3 cells (human ovarian adenocarcinoma cells) (human) (UniProt P21589); experiment: flow cytometry on SK-OV-3 cells, anti-hFc-APC
[4] = target: human CD73 on SK-OV-3 cells (human ovarian adenocarcinoma cells) (human) (UniProt P21589); experiment: flow cytometry on SK-OV-3 cells, anti-hFc-APC; remark: listed apart in the source
[5] = target: human CD73 on SK-OV-3 cells (human ovarian adenocarcinoma cells) (human) (UniProt P21589); experiment: flow cytometry on SK-OV-3 cells; remark: listed apart in the source
[6] = target: human CD73 on SK-OV-3 cells (human ovarian adenocarcinoma cells) (human) (UniProt P21589); experiment: flow cytometry on SK-OV-3 cells; remark: listed apart in the source
[7] = target: human CD73 on SK-OV-3 cells (human ovarian adenocarcinoma cells) (human) (UniProt P21589); experiment: flow cytometry on SK-OV-3 cells, anti-hFc-APC; remark: listed apart in the source
[8] = target: T1, human CD73 on SK-OV-3 cells (human ovarian adenocarcinoma cells) (human, UniProt P21589 27-549); experiment: flow cytometry on SK-OV-3 cells
T1 construct: whole, on cells; also called human CD73 positive cells
T1 sequence (looked up): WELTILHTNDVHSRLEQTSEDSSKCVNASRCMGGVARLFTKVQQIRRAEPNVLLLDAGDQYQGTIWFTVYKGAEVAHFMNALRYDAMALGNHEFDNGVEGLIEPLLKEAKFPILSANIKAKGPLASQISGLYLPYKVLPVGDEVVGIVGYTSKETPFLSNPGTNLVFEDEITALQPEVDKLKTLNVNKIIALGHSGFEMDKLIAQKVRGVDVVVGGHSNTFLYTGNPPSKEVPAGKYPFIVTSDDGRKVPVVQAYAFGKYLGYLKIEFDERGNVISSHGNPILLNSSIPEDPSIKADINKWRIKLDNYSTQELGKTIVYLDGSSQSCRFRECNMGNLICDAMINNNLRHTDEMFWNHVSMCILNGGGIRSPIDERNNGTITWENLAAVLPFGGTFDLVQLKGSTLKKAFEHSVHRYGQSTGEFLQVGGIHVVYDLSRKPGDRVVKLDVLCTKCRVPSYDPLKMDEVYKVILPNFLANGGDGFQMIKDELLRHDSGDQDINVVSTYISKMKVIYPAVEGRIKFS

[9] = target: T2, monkey CD73 on CHOK1-cynoCD73 cells (monkey, UniProt A0A2K5V5U7 27-549, GPI anchor at the C-terminus of the mature chain (paragraph 3 says CD73 is GPI-anchored). The propeptide 550-574 is removed.); experiment: flow cytometry on CHOK1-cynoCD73 cells
T2 construct: also called CHOK1-cyno73 cells; monkey CD73 positive cells
T2 sequence: T1 sequence (looked up) with M199T, T350A, V466I
Excerpt: The full length of monkey CD73 was constructed on a eukaryotic expression vector containing NEO resistance, CHO-K1 cells were transfected, G418 was used for screening to obtain a CHOK1-cynoCD73 cell strain.

[10] = target: T1, human CD73 on SK-OV-3 cells (human …); experiment: flow cytometry on SK-OV-3 cells, anti-hFc-APC
[11] = target: T3, recombinant human CD73 protein (human, UniProt P21589 27-547, limits assumed); experiment: ELISA, plate coated with recombinant human CD73 at 3 µg/mL
T3 construct: Bought recombinant protein; the assays only say recombinant human CD73; also called rhCD73; recombinant hCD73 protein
T3 sequence (looked up): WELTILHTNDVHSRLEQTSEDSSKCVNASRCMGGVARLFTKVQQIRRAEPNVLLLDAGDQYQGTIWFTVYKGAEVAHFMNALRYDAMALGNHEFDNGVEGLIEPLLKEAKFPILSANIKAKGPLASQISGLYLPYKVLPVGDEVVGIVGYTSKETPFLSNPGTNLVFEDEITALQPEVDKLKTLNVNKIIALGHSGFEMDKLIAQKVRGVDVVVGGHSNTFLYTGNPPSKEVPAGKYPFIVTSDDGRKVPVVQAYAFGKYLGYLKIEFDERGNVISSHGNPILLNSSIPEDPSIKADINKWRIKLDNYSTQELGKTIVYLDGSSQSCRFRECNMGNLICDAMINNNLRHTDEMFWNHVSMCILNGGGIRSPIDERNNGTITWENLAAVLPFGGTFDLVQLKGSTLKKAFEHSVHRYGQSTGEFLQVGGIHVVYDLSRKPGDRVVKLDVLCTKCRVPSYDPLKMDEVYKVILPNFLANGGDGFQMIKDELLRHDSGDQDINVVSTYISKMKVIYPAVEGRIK

[12] = target: T3, recombinant human CD73 protein; experiment: ELISA, recombinant human CD73 coated at 3 ug/mL
[13] = target: T4, recombinant monkey CD73 protein (monkey, UniProt A0A2K5V5U7 27-549); experiment: ELISA, plate coated with recombinant monkey CD73 at 3 µg/mL
T4 construct: Monkey species not further named for the recombinant protein (the cell line is called cynoCD73)
T4 sequence: T1 sequence (looked up) with M199T, T350A, V466I
Excerpt: (§1) The combination of antibody and the recombinant monkey CD73 was detected by an ELISA method, and the result is shown in FIG. 8B.

[14] = target: T4, recombinant monkey CD73 protein; experiment: ELISA, recombinant monkey CD73 coated at 3 ug/mL
Excerpt: as §1

[15] = target: T1, human CD73 on SK-OV-3 cells (human …); experiment: flow cytometry on SK-OV-3 cells; remark: listed apart in the source
[16] = target: T1, human CD73 on SK-OV-3 cells (human …); experiment: flow cytometry on SK-OV-3 cells, anti-hFc-APC; remark: listed apart in the source
[17] = target: T3, recombinant human CD73 protein; experiment: ELISA, recombinant human CD73
[18] = target: T2, monkey CD73 on CHOK1-cynoCD73 cells; experiment: flow cytometry on CHOK1-cynoCD73 cells; remark: listed apart in the source
[19] = target: T4, recombinant monkey CD73 protein; experiment: ELISA, recombinant monkey CD73
[20] = target: T3, recombinant human CD73 protein; experiment: ELISA, recombinant human CD73 coated at 3 ug/mL; remark: listed apart in the source
[21] = target: T2, monkey CD73 on CHOK1-cynoCD73 cells; experiment: flow cytometry on CHOK1-cynoCD73 cells; remark: listed apart in the source
[22] = target: T4, recombinant monkey CD73 protein; experiment: ELISA, recombinant monkey CD73 coated at 3 ug/mL; remark: listed apart in the source

- EC50 [1]: 0.0336 µg/mL
- EC50 [2]: 0.00412 µg/mL
- EC50 (read off the curve) [2]: 0.002 µg/mL
- EC50 (read off the curve) [3]: 0.02 µg/mL
- EC50 (read off the curve) [4]: 0.1 µg/mL
- EC50 [5]: 23.5 µg/mL
- EC50 [6]: 0.00963 µg/mL
- EC50 (read off the curve) [7]: 0.03 µg/mL
Molecule: MEDI-9447 of AstraZeneca(AZ)/Medimmune (antibody)

- EC50 [8]: 7.03 µg/mL
- EC50 [9]: 0.0403 µg/mL
- EC50 (read off the curve) [9]: ~0.04 µg/mL
- EC50 (read off the curve) [10]: ~0.003 µg/mL
- EC50 [11]: 0.331 µg/mL
- EC50 (read off the curve) [12]: ~0.3 µg/mL
- EC50 [13]: 0.202 µg/mL
- EC50 (read off the curve) [14]: ~0.2 µg/mL
B1: humanized CQ137 monoclonal antibody (137-3) (antibody, V domains shown)
VH: QVQLVQSGAEVKKPGSSVKVSCKASGYSFTGYYIHWVRQAPGQGLEWMGRINPYNGATTYNQNFKDRVTITVDKSTSTAYMELSSLRSEDTAVYYCARFHYGAPDYWGQGTLVTVSS
VL: DIQMTQSPSSLSASVGDRVTITCKASQDINTYLTWYQQKPGKAPKTLIYRANILVDGVPSRFSGSGSGTDFTLTISSLQPEDFATYYCLQYDEFPLTFGGGTKVEIKR

- EC50 [15]: 0.00307 µg/mL
- EC50 (read off the curve) [16]: ~0.003 µg/mL
- EC50 [17]: 0.262 µg/mL
- EC50 (read off the curve) [18]: ~0.008 µg/mL
- EC50 [19]: 0.352 µg/mL
- EC50 (read off the curve) [20]: ~0.3 µg/mL
- EC50 [21]: 0.00831 µg/mL
- EC50 (read off the curve) [22]: ~0.4 µg/mL
B2: humanized CQ137 monoclonal antibody (137-4) (antibody, V domains shown)
VH: B1 VH with P104V
VL: B1 VL with D92E

- EC50 [8]: 3.26 µg/mL
- EC50 [9]: 0.0233 µg/mL
- EC50 (read off the curve) [9]: ~0.02 µg/mL
- EC50 (read off the curve) [10]: ~0.007 µg/mL
- EC50 [11]: 0.275 µg/mL
- EC50 (read off the curve) [12]: ~0.3 µg/mL
- EC50 [13]: 0.313 µg/mL
- EC50 (read off the curve) [14]: ~0.3 µg/mL
B3: humanized CQ137 monoclonal antibody (137-2) (antibody, V domains shown)
VH: B1 VH with S16A, I70M, S84R, E89D
VL: B1 VL with Y36F, T46S

- EC50 [15]: 0.00371 µg/mL
- EC50 (read off the curve) [16]: ~0.004 µg/mL
- EC50 [17]: 0.267 µg/mL
- EC50 (read off the curve) [18]: ~0.008 µg/mL
- EC50 [19]: 0.315 µg/mL
- EC50 (read off the curve) [20]: ~0.3 µg/mL
- EC50 [21]: 0.00769 µg/mL
- EC50 (read off the curve) [22]: ~0.3 µg/mL
B4: humanized CQ137 monoclonal antibody (137-6) (antibody, V domains shown)
VH: B1 VH with D105E
VL: B1 VL with D92A

- EC50 [15]: 0.0234 µg/mL
- EC50 (read off the curve) [16]: ~0.02 µg/mL
- EC50 [17]: 0.387 µg/mL
- EC50 (read off the curve) [18]: ~0.02 µg/mL
- EC50 [19]: 0.734 µg/mL
- EC50 [21]: 0.0154 µg/mL
B5: humanized CQ137 monoclonal antibody (137-5) (antibody, V domains shown)
VH: B1 VH with P104A
VL: B1 VL with D92N

- EC50 [8]: 2.13 µg/mL
- EC50 [9]: 0.0862 µg/mL
- EC50 (read off the curve) [9]: ~0.09 µg/mL
- EC50 (read off the curve) [10]: ~0.002 µg/mL
- EC50 [11]: 0.258 µg/mL
- EC50 (read off the curve) [12]: ~0.3 µg/mL
- EC50 [13]: 3.76 µg/mL
B6: humanized CQ137 monoclonal antibody (137-1) (antibody, V domains shown)
VH: B1 VH with S16A, S28T, I70M, S84R, E89D
VL: B1 VL with Y36F, T69Q, F71Y

- EC50 [15]: 0.0331 µg/mL
- EC50 (read off the curve) [16]: ~0.03 µg/mL
- EC50 [17]: 0.446 µg/mL
- EC50 (read off the curve) [18]: ~0.02 µg/mL
- EC50 [19]: 3.76 µg/mL
- EC50 (read off the curve) [20]: ~0.4 µg/mL
- EC50 [21]: 0.0193 µg/mL
B7: humanized CQ137 monoclonal antibody (137-9) (antibody, V domains shown)
VH: B1 VH with Y106L
VL: B1 VL with E93A

- EC50 [15]: 0.00487 µg/mL
- EC50 (read off the curve) [16]: ~0.005 µg/mL
- EC50 [17]: 0.312 µg/mL
- EC50 (read off the curve) [18]: ~0.008 µg/mL
- EC50 [19]: 3.76 µg/mL
- EC50 (read off the curve) [20]: ~0.3 µg/mL
- EC50 [21]: 0.00782 µg/mL
B8: humanized CQ137 monoclonal antibody (137-8) (antibody, V domains shown)
VH: B1 VH with Y106F
VL: B1 VL with E93Q

- EC50 [15]: 0.0301 µg/mL
- EC50 [17]: 0.5 µg/mL
- EC50 (read off the curve) [18]: ~0.02 µg/mL
- EC50 [19]: 6.57 µg/mL
- EC50 [21]: 0.0239 µg/mL
B9: humanized CQ137 monoclonal antibody (137-7) (antibody, V domains shown)
VH: B1 VH with D105N
VL: B1 VL with E93D
